Measured values from US20140087995A1 (published 2014).
Numbered stars: 1 amine (or outer) side, 2 acyl side, 3 side chain; on linkers, the order of the positions; unused ones are H or OH. Bridge positions count the residues as written; N and C are the ends. Side chains are listed from the residue outwards. Ends that are not written are not given here. * marks the point of attachment. C20 diacid = O=C(O)CCCCCCCCCCCCCCCCCCC(=O)*; γGlu = O=C(O)[C@H](CCC(=O)[*:2])N[*:1]; AEEA = NCCOCCOCC(=O)O

T1: human amylin 3(a) receptor (human calcitonin receptor co-expressed with RAMP-3) (human, UniProt P30988 25-474; O60896 24-148, limits assumed)
T1 sequence (looked up) 1: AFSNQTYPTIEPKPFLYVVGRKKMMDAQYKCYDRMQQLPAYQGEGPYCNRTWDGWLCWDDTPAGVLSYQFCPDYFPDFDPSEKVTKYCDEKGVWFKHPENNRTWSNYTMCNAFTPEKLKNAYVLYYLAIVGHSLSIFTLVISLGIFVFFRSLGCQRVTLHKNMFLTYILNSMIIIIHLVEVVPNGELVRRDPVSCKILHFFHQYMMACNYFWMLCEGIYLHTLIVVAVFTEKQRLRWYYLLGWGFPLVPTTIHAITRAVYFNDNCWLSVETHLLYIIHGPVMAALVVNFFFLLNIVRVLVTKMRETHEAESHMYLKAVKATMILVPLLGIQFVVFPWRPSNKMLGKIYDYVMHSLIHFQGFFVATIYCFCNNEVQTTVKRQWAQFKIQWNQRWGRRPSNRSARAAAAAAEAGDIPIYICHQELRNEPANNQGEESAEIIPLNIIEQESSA
T1 sequence (looked up) 2: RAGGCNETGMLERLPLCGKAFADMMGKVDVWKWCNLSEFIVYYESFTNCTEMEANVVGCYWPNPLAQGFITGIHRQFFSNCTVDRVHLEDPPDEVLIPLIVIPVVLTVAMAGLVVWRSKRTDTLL

T2: human calcitonin receptor (human, UniProt P30988 25-474)
T2 sequence (looked up): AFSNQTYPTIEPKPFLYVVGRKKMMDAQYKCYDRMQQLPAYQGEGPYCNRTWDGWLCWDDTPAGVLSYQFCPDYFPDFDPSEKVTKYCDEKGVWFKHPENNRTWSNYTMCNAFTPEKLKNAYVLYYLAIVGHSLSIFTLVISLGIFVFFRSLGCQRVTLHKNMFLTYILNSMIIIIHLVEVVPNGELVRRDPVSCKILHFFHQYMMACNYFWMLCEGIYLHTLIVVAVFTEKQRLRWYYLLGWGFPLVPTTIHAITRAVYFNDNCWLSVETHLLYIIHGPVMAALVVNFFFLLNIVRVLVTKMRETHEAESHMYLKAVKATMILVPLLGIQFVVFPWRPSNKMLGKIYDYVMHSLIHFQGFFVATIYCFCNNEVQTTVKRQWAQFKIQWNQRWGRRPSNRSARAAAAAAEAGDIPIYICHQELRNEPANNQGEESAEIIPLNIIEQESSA


What was measured:
[1] = target: T1, human amylin 3(a) receptor (human …); test: cell-based or functional assay
[2] = target: T2, human calcitonin receptor; test: cell-based or functional assay

Row | hAmylin-R funct. EC50 [1] [nM] | hCTR funct. EC50 [2] [nM] | Ratio hCT/hAmylin funct. [1] | Binder
1 | 0.047 | 1.03 | – | K([AEEA-γGlu-C20 diacid])CNTATCATQRLANFLRHSSPNFGAIPSSTNVGPHTY-NH2 (disulfide 2-7; N-terminus assumed; SMILES CC[C@H](C)[C@H](NC(=O)[C@H](C)NC(=O)CNC(=O)[C@H](Cc1ccccc1)NC(=O)[C@H](CC(N)=O)NC(=O)[C@@H]1CCCN1C(=O)[C@H](CO)NC(=O)[C@H](CO)NC(=O)[C@H](Cc1c[nH]cn1)NC(=O)[C@H](CCCNC(=N)N)NC(=O)[C@H](CC(C)C)NC(=O)[C@H](Cc1ccccc1)NC(=O)[C@H](CC(N)=O)NC(=O)[C@H](C)NC(=O)[C@H](CC(C)C)NC(=O)[C@H](CCCNC(=N)N)NC(=O)[C@H](CCC(N)=O)NC(=O)[C@@H](NC(=O)[C@H](C)NC(=O)[C@@H]1CSSC[C@H](NC(=O)[C@@H](N)CCCCNC(=O)COCCOCCNC(=O)CC[C@H](NC(=O)CCCCCCCCCCCCCCCCCCC(=O)O)C(=O)O)C(=O)N[C@@H](CC(N)=O)C(=O)N[C@@H]([C@@H](C)O)C(=O)N[C@@H](C)C(=O)N[C@@H]([C@@H](C)O)C(=O)N1)[C@@H](C)O)C(=O)N1CCC[C@H]1C(=O)N[C@@H](CO)C(=O)N[C@@H](CO)C(=O)N[C@H](C(=O)N[C@@H](CC(N)=O)C(=O)N[C@H](C(=O)NCC(=O)N1CCC[C@H]1C(=O)N[C@@H](Cc1c[nH]cn1)C(=O)N[C@H](C(=O)N[C@@H](Cc1ccc(O)cc1)C(N)=O)[C@@H](C)O)C(C)C)[C@@H](C)O, h-amylin derivative; disulfide bridge and C-terminal amide as told for human amylin; also called compound 58)
2 | 0.089 | 3.12 | – | K([AEEA-γGlu-C20 diacid])CNTATCATQRLANFLRHSSPNFGAIPSSTPVGSHTY-NH2 (disulfide 2-7; N-terminus assumed; SMILES CC[C@H](C)[C@H](NC(=O)[C@H](C)NC(=O)CNC(=O)[C@H](Cc1ccccc1)NC(=O)[C@H](CC(N)=O)NC(=O)[C@@H]1CCCN1C(=O)[C@H](CO)NC(=O)[C@H](CO)NC(=O)[C@H](Cc1c[nH]cn1)NC(=O)[C@H](CCCNC(=N)N)NC(=O)[C@H](CC(C)C)NC(=O)[C@H](Cc1ccccc1)NC(=O)[C@H](CC(N)=O)NC(=O)[C@H](C)NC(=O)[C@H](CC(C)C)NC(=O)[C@H](CCCNC(=N)N)NC(=O)[C@H](CCC(N)=O)NC(=O)[C@@H](NC(=O)[C@H](C)NC(=O)[C@@H]1CSSC[C@H](NC(=O)[C@@H](N)CCCCNC(=O)COCCOCCNC(=O)CC[C@H](NC(=O)CCCCCCCCCCCCCCCCCCC(=O)O)C(=O)O)C(=O)N[C@@H](CC(N)=O)C(=O)N[C@@H]([C@@H](C)O)C(=O)N[C@@H](C)C(=O)N[C@@H]([C@@H](C)O)C(=O)N1)[C@@H](C)O)C(=O)N1CCC[C@H]1C(=O)N[C@@H](CO)C(=O)N[C@@H](CO)C(=O)N[C@H](C(=O)N1CCC[C@H]1C(=O)N[C@H](C(=O)NCC(=O)N[C@@H](CO)C(=O)N[C@@H](Cc1c[nH]cn1)C(=O)N[C@H](C(=O)N[C@@H](Cc1ccc(O)cc1)C(N)=O)[C@@H](C)O)C(C)C)[C@@H](C)O, h-amylin derivative; disulfide bridge and C-terminal amide as told for human amylin; also called compound 57)

The next lines start with the binder.

Row | Binder | hAmylin-R funct. EC50 [1] [nM] | hCTR funct. EC50 [2] [nM] | Ratio hCT/hAmylin funct. [1]
3 | K([AEEA-γGlu-C20 diacid])CNTATCATQRLANFLRHSSPNFGAIPPSTNVGPNTY-NH2 (disulfide 2-7; N-terminus assumed; SMILES CC[C@H](C)[C@H](NC(=O)[C@H](C)NC(=O)CNC(=O)[C@H](Cc1ccccc1)NC(=O)[C@H](CC(N)=O)NC(=O)[C@@H]1CCCN1C(=O)[C@H](CO)NC(=O)[C@H](CO)NC(=O)[C@H](Cc1c[nH]cn1)NC(=O)[C@H](CCCNC(=N)N)NC(=O)[C@H](CC(C)C)NC(=O)[C@H](Cc1ccccc1)NC(=O)[C@H](CC(N)=O)NC(=O)[C@H](C)NC(=O)[C@H](CC(C)C)NC(=O)[C@H](CCCNC(=N)N)NC(=O)[C@H](CCC(N)=O)NC(=O)[C@@H](NC(=O)[C@H](C)NC(=O)[C@@H]1CSSC[C@H](NC(=O)[C@@H](N)CCCCNC(=O)COCCOCCNC(=O)CC[C@H](NC(=O)CCCCCCCCCCCCCCCCCCC(=O)O)C(=O)O)C(=O)N[C@@H](CC(N)=O)C(=O)N[C@@H]([C@@H](C)O)C(=O)N[C@@H](C)C(=O)N[C@@H]([C@@H](C)O)C(=O)N1)[C@@H](C)O)C(=O)N1CCC[C@H]1C(=O)N1CCC[C@H]1C(=O)N[C@@H](CO)C(=O)N[C@H](C(=O)N[C@@H](CC(N)=O)C(=O)N[C@H](C(=O)NCC(=O)N1CCC[C@H]1C(=O)N[C@@H](CC(N)=O)C(=O)N[C@H](C(=O)N[C@@H](Cc1ccc(O)cc1)C(N)=O)[C@@H](C)O)C(C)C)[C@@H](C)O, h-amylin derivative; disulfide bridge and C-terminal amide as told for human amylin; also called compound 55) | 0.068 | 0.731 | –
4 | K([AEEA-γGlu-C20 diacid])CNTATCATQRLANFLRHSSPNFGAIPSPTPVGSNTY-NH2 (disulfide 2-7; N-terminus assumed; SMILES CC[C@H](C)[C@H](NC(=O)[C@H](C)NC(=O)CNC(=O)[C@H](Cc1ccccc1)NC(=O)[C@H](CC(N)=O)NC(=O)[C@@H]1CCCN1C(=O)[C@H](CO)NC(=O)[C@H](CO)NC(=O)[C@H](Cc1c[nH]cn1)NC(=O)[C@H](CCCNC(=N)N)NC(=O)[C@H](CC(C)C)NC(=O)[C@H](Cc1ccccc1)NC(=O)[C@H](CC(N)=O)NC(=O)[C@H](C)NC(=O)[C@H](CC(C)C)NC(=O)[C@H](CCCNC(=N)N)NC(=O)[C@H](CCC(N)=O)NC(=O)[C@@H](NC(=O)[C@H](C)NC(=O)[C@@H]1CSSC[C@H](NC(=O)[C@@H](N)CCCCNC(=O)COCCOCCNC(=O)CC[C@H](NC(=O)CCCCCCCCCCCCCCCCCCC(=O)O)C(=O)O)C(=O)N[C@@H](CC(N)=O)C(=O)N[C@@H]([C@@H](C)O)C(=O)N[C@@H](C)C(=O)N[C@@H]([C@@H](C)O)C(=O)N1)[C@@H](C)O)C(=O)N1CCC[C@H]1C(=O)N[C@@H](CO)C(=O)N1CCC[C@H]1C(=O)N[C@H](C(=O)N1CCC[C@H]1C(=O)N[C@H](C(=O)NCC(=O)N[C@@H](CO)C(=O)N[C@@H](CC(N)=O)C(=O)N[C@H](C(=O)N[C@@H](Cc1ccc(O)cc1)C(N)=O)[C@@H](C)O)C(C)C)[C@@H](C)O, h-amylin derivative; disulfide bridge and C-terminal amide as told for human amylin; also called compound 54) | – | 0.987 | 9.6
5 | K([AEEA-γGlu-C20 diacid])CNTATCATQRLANFLRHSSPNFGAIPSPTNVGPNTY-NH2 (disulfide 2-7; N-terminus assumed; SMILES CC[C@H](C)[C@H](NC(=O)[C@H](C)NC(=O)CNC(=O)[C@H](Cc1ccccc1)NC(=O)[C@H](CC(N)=O)NC(=O)[C@@H]1CCCN1C(=O)[C@H](CO)NC(=O)[C@H](CO)NC(=O)[C@H](Cc1c[nH]cn1)NC(=O)[C@H](CCCNC(=N)N)NC(=O)[C@H](CC(C)C)NC(=O)[C@H](Cc1ccccc1)NC(=O)[C@H](CC(N)=O)NC(=O)[C@H](C)NC(=O)[C@H](CC(C)C)NC(=O)[C@H](CCCNC(=N)N)NC(=O)[C@H](CCC(N)=O)NC(=O)[C@@H](NC(=O)[C@H](C)NC(=O)[C@@H]1CSSC[C@H](NC(=O)[C@@H](N)CCCCNC(=O)COCCOCCNC(=O)CC[C@H](NC(=O)CCCCCCCCCCCCCCCCCCC(=O)O)C(=O)O)C(=O)N[C@@H](CC(N)=O)C(=O)N[C@@H]([C@@H](C)O)C(=O)N[C@@H](C)C(=O)N[C@@H]([C@@H](C)O)C(=O)N1)[C@@H](C)O)C(=O)N1CCC[C@H]1C(=O)N[C@@H](CO)C(=O)N1CCC[C@H]1C(=O)N[C@H](C(=O)N[C@@H](CC(N)=O)C(=O)N[C@H](C(=O)NCC(=O)N1CCC[C@H]1C(=O)N[C@@H](CC(N)=O)C(=O)N[C@H](C(=O)N[C@@H](Cc1ccc(O)cc1)C(N)=O)[C@@H](C)O)C(C)C)[C@@H](C)O, h-amylin derivative; disulfide bridge and C-terminal amide as told for human amylin; also called compound 56) | 0.102 | 0.506 | 5
